Consider 23 sequences from the DeepSol protein solubility set.

This data set in a line: soluble on expression in E. coli; label from the status in PepcDB or PDB records.
As for “MRSLADFEFNNAPLCDGMILASEMIRLDFPTQFVYDELERLVSLAQEEISQLLSQDEQLEKLLALFYGEWGFTDSRGVYRLSDALWLDKVLKKRQGSAVSLGAILLWIANRLDLPLVPVIFPTQLILRIESLEGEMWLINPFNGETLDEHTLEVWLKGNISPVAELFNEDLDEADNAEVIRKLLDTLKSSLMEERQMELALRVSEALLQFNPEDPYEIRDRGLIYAQLECEHVALTDLSYFVEQCPEDPISEMIRAQINTIAHKQIVLHLEHHHHHH”, the “soluble on expression in E. coli” value is given as “not soluble”.

Consider “MRSPDSDRPVHRMRALREAVSDADSHSRRGGRMIAREWQFALPEKKHKKKYFGNLKAEVIDAGLCCHCAACASICPVNGITAGDAPIDFPNWVKECVDCGACIKVCPRWEYTPKNGLGEYIEVVAARSKRFVGQDGAMVTEFTASALEMGIIERAIFVARDSNWRTRVVTIKTPEQLYDRKITGTKYSYADVLPALKEAVLKSEAVGFVGTPCMVSAVRKMQQAFKKFERVKLAIGLFCTENFYHHDLYKFLLEKANADLRNAVKTDIKKGKFIVEMKDGSKVRIPVKDFEEIIPSGCKVCQDFAAVESDVSVGSVGSPNRFSTVMVRTEVAKQILDYIREKDYAEFGEAKLDIVQKLCDHKMKIHPWPPKKKEEKSEELEHHHHHH”, for which the “soluble on expression in E. coli” value was “soluble”.

With “MRSRHDTYNNDCDRTLVIMAQRTLAYIVSRRQSASGFTTTARARRWHV”, the “soluble on expression in E. coli” value is recorded as “not soluble”.

Consider “MRTLFIGDLHLSADRLDITQAFNRFLDTELDDADALYILGDLFEVWVGDDLAAPFALELAHKLKQVSQTLPIFFIHGNRDFMLGKRFAEAAGMQLLPEVTCIELYGVKTVILHGDSLCTLDKAYQRFRKLRSFACARWLYSCLPKKRRQAIANKIRSNSQSSNQQKSYVIMDVEPSAVNALFVKTHTTRMIHGHTHRPAIHIVDNACQRIVVGDWYEQGSVLSVSANGVDLKSLPFETTLEHHHHHH”, for which the “soluble on expression in E. coli” value is listed as “not soluble”.

On to “MRTLLIRYILWRNDGDPSYYNDDFKKLILFDELVDDDDVCTLIKNMRMTLSDGPLLDRLNQPVNNVEDVKRMIAISAKVARDIGRRSEIRWEDSFTILFRMIEKYFDDLMTDLYGEK”, for which the “soluble on expression in E. coli” value is reported as “not soluble”.

Turning to “MRTLPSVLAAHLASGATTLCFAWRVTRRDGLVTGFTDHDRDLVVDGVTCKAASGISGSQSTLASGLSVTGAEVSGALSHDALSEDDLAAGLYDGAAIDHLLVNWQDPAQVLLLRRGTIGEVRAQDGVFTAEIRSLSDGLNQTRGRLLSSSCDADLGDARCGVDLTLPAHAASATVVAVEGALSLRVTGLSAFAQGAFARGRARLSSGANAGFVTEVKAHLVDAEGVLLRLWQRPPFAVAEGDGITLTAGCDKQLATCRDRFSNALNFRGFPHMPGNDFVIAVAIAGEGGYDGSLLE”, the “soluble on expression in E. coli” value is “soluble”.

In the case of “MRTVALGIVAMACLVAIAHGGNFFQDAEVSWGQGRGKIVDGGRGLDLTLDRSSGSGFQSKSEYLFGKIDMQIKLVPGGWWNQELSDMSYRRMRWVQRKFMIYNYCTDAKRFPQGTPAECKLR”, the “soluble on expression in E. coli” value was “not soluble”.

In the case of “MRTVSTVAELRAALPREGVGFVPTMGYLHRGHLALVERARRENPFVVVSVFVNPLQFGPGEDYHRYPRDLERDRALLQEAGVDLLFAPGVEEMYPEGFATRVQVEGPLTALWEGAVRPGHFQGVATVVARLFLLVQPQRAYFGEKDYQQLLVVRRMVRDLGFPVEVVGVPTVREEDGLALSSRNVYLSPETRKKAPVLYRALLAMREVAGQGGSVAEALRAGEEALRAVPEFRKDYLAIVHPETLLPLSDWVAGARGIVAGRFPEARLIDNLEVYP”, the “soluble on expression in E. coli” value is given as “soluble”.

Turning to “MRVFALQLESFKENLMQSLFNSIPKKSVIVLPEYVINPFFHHNMGLDVNEISDQSARAVEFLSQKCEELDLIVSAPVLLEEHSKIYKKIALISKESVKYYTQQRLIPYPHWDEESFFDNEKSAFKELLVFERDGLKFAPLFGFEAHFDEIWVQAKNQGVDVVLLSSVATFESNERWRLLCQMRAFCASCVVVRANRIGAYRQIIVEEDQKNEFLWKFYGDSFVALPNGAIEDSLEGKMGALNAQIDKNDIDEWAKLWHFRTIKEGLEHHHHHH”, the “soluble on expression in E. coli” value is given as “not soluble”.

For the sequence “MRVLFIGDVMAEPGLRAVGLHLPDIRDRYDLVIANGENAARGKGLDRRSYRLLREAGVDLVSLGNHAWDHKEVYALLESEPVVRPLNYPPGTPGKGFWRLEVGGESLLFVQVMGRIFMDPLDDPFRALDRLLEEEKADYVLVEVHAEATSEKMALAHYLDGRASAVLGTHTHVPTLDATRLPKGTLYQTDVGMTGTYHSIIGGEVETFLARFLTGRPQPFRAAQGKARFHATELVFEGGRPVAISPYVWEEP”, the “soluble on expression in E. coli” value was “soluble”.

Turning to “MRVVALGDLHANFPLLWRILRREGLADEGFRPTEALRSGRVRLVLLGDLVHPKTPRDYARLTGLEAYDPEDPFHLRLAAGAQIRELFRLKAFQEEAGDHVTILLGNHEAALLEGSPILGNRHLKHLEFHPEHGGKALPEALRSWMASFPKELVLKGVHFAHVGPVPWLQEYDGLFYAQSEAKTWWFLTPEYVERMGYRYGVYGHTPMPDGILLKDRFALIDALDLGEYLVLDPEADPPRPEVRRLHE”, the “soluble on expression in E. coli” value is recorded as “soluble”.

As to “MRYFPLFLDLTNKPVLVVGGGEVACRKIDALLRADAKVTVISPQVAPALQAWIEQGKCHWIQHFYSSHWLDKRYVQVWATTDNPELNHQVYKDAKEQGILVNVVDDQPYCDFITPSMIERGRIQLAISSGGASPVLIRNIRETLEAVLAQNLALLADFGASKRNSIKDFLPSVDLRRQFWERFFAHPEVKNAQDRESLERIYIHLLTQSTDKVSATTWIEFGADVELLSLKALRYMQQAELVLHTQDCPFVFVDLCRRDAQRQSFNSSVELSTLLLQAQQETQNVCVLIPSGSSEYALLQGKATVLKMAQQG”, the “soluble on expression in E. coli” value is on record as “not soluble”.

For “MRYLELAQLYQKLEKTTMKLIKTRLVADFLKKVPDDHLEFIPYLILGEVFPEWDERELGVGEKLLIKAVAMATGIDAKEIEESVKDTGDLGESIALAVKKKKQKSFFSQPLTIKRVYQTLVKVAETTGEGSQDKKVKYLADLFMDAEPLEAKYLARTILGTMRTGVAEGLLRDAIAMAFHVKVELVERAYMLTSDFGYVAKIAKLEGNEGLAKVQVQLGKPIKPMLAQQAASIRDALLEMGGEAEFEIKYDGARVQVHKDGSKIIVYSRRLENVTRAIPEIVEALKEAIIPEKAIVEGELVAIGENGRPLPFQYVLRRFRRKHNIEEMMEKIPLELNLFDVLYVDGQSLIDTKFIDRRRTLEEIIKQNEKIKVAENLITKKVEEAEAFYKRALEMGHEGLMAKRLDAVYEPGNRGKKWLKIKPTMENLDLVIIGAEWGEGRRAHLFGSFILGAYDPETGEFLEVGKVGSGFTDDDLVEFTKMLKPLIIKEEGKRVWLQPKVVIEVTYQEIQKSPKYRSGFALRFPRFVALRDDKGPEDADTIERIAQLYELQEKMKGKVES”, the “soluble on expression in E. coli” value is “soluble”.

“MRYTGYMMEVRQLRHFVTVAEWESFTLAAQQLHIAQPALSISIKKFEQQLGVTLFKRDERKVALTHEGEVLLEHAKRILQQVNDAQLAVDELKGVVKGEVRLGAPSMMGSYFFPQIIMAFKSHFPNLKMTVIEAGTQSIRRMLLSGELDIGVILNHDLPDDLAADPLLSSQMVAVVGKNHELAERRHLTFAEFFEHELVMFKPGYFHRDFIDKVCREHKFTADFSFETNLLPMILSIVKHEYAITALLELVTSNEPEVKAIPFEPPVWLDLALAWRKEGYLSNADRTFIEFVKKYV”: the “soluble on expression in E. coli” value is “not soluble”.

“MSADHDHDHDHDHDHKPAPMVEEVSDFEILEMAVRELAIEKGLFSAEDHRVWKDYVHTLGPLPAARLVAKAWLDPEYKKLCIEDGVEASKAVGVNWVTSPPTQFGTPSDYCNLRVLADSPTLKHVVVCTLCSCYPRPILGQSPEWYRSPNYRRRLVRWPRQVLAEFGLQLPSEVQIRVADSNQKTRYIVMPVRPEGTDGWTEDQLAEIVTRDCLIGVAVPKPGITVNAKRPVLKANRPVHHDH”: the “soluble on expression in E. coli” value is listed as “soluble”.

“MSAICQVTGRQPGYGKSVSHSHRRTSRRWNPNVQRRKFYLPSEGRTITLNVSTKGLKVIDRDGIESVVAKIRARGEKILEHHHHHH”: the “soluble on expression in E. coli” value is “not soluble”.

Turning to “MSAKGKHVVVIGGGDTGADCITTSVRHGAKSITQFDINREKSNERPDNNPWPLFPIVHTVEDGHKEAAAVYGKDPRAYQVMTTKFVGDAEGHVKEIHTISVETTVHPDGSKTRVEIPGTEKVWPADLVFLAVGFTGPEEQLVRELELETDTRSNIKAEYGKYETSLEGVFAAGDNRRGQSLVVWAIHEGREAARECDKYLMGLEHHHHHH”, the “soluble on expression in E. coli” value is given as “not soluble”.

Consider “MSAKPVIVGGGPAGMSAAMELARHGVECVLLDEASRVGGVVYRGPLREGVVLDYLGERYRENMQALHREFEQVRDRIDIRLNTRVVGGGEGELFALTPDERVEAVPFSQLLLAAGCHERSVPFPGWTLPGVIMLGGLQLQIKSGVVKPLGRTVLVGTGPLLPLVACQLHRAGVEVAGVYEASAFGRLAKETIALLNQPQLFLDGLSMVAYLKRHGIPLHYGWGVVEAHGDAELGEVTVAPYDAEWRADLTRSRRLPAQTLAVGYGFIPRTQLTQQMGLEHRYADDGYLKPVNDEWQRSSRGNIHLAGDIGGLRGGEAAMISGRIAALSMLLQLGKLDEQQALRQRQACLDQMASILRFRKGIDSFTRRGRGQLALPARDTVICRCEHATRQDIDTALEQGVNDLISLKMRTRVSMGDCQGKMCVGYCSDRLREHTGKRDVGWIRPRFPLDPLPFSAFSAIDAQQTEEILEHHHHHH”, for which the “soluble on expression in E. coli” value was “not soluble”.

Turning to “MSAKRCASYYNATIKQESDYPELEGDIHVDVTIIGGGFTGVATAVELSEKGYKVALLEANKIAWGATGRNGGQVTGSLSGDAAMTKQLRRHLGQDAEDYVWNLRWRGHDIIKNRVAKYGIDCDLKFGHIQTAYHPGHMQELQQMFDEANRRGMGEFMTLVPAQEMSAYLASPLYHGGLVNRRNMHLHSVNLCLGEARAAASLGAQIFEHSQVLDIQQAELATVVTPKGTVKANSVLIAGNAYHKLGRPKLRGMLFPASLGNCATAKLPEELAKQLNPQNLAVYDCRFVLDYYRLTADNRLMFGGGTNYSGRDPKNVAAELRPAIERTFPQLKGVDIEFAWAGMAGIVINRIPQLGKISPNIFYCQGYSGHGVATSHIMAEIMGQAIDGQMQEFDLFAAMRHIRIPLNEWFGNQALALGMLYYTLRENWRLEHHHHHH”, the “soluble on expression in E. coli” value was “not soluble”.

As for “MSALSTLKVTFIVSPPSFPCFHTPGPRRKAAPFRFTGQSAYPLWYHGGMAEAFCPVYAALNLLQEKWTLHIIRALLEGPKGFNELSRAVGGVNPATLSQRLDQLVRLGVVEKRVESYMPPRTRYSLTPAGEELEEVVQAIERWARRHLKAPDPAR”, the “soluble on expression in E. coli” value is recorded as “soluble”.

Consider “MSAPFEERSGVVPCGTPWGQWYQTLEEVFIEVQVPPGTRAQDIQCGLQSRHVALAVGGREILKGKLFDSTIADEGTWTLEDRKMVRIVLTKTKRDAANCWTSLLESEYAADPWVQDQMQRKLTLERFQKENPGFDFSGAEISGNYTKGGPDFSNLEK”, for which the “soluble on expression in E. coli” value is “soluble”.

Take “MSAPLKHPNAVVLQPPTVTISPLIRFGRYAALSLGVVYGFFRLRQIREYHADIREWDHEKAVAAAEEAAKKKKWLAKDEMRYLMQVVNIPFEEGVKQFGVADLYKED”: the “soluble on expression in E. coli” value is on record as “not soluble”.

“MSAPLPPRGRGTASNPLNRFAPTHSEAFDDGWEQDVPPIQLTEVREEIARTVISRNQSPDLPFDRSINPYRGCEHGCIYCYARPSHAYWDLSPGIDFETRLIAKSNVASALEQELSKPGYRCAPINLGANTDPYQPLERERRLTRQVLEVLLRFRHPLTIVTKGSLILRDLDLLRELAEQNLVAVMISLTTLDDELKRILEPRAAAPSARLRAIRTLSGNGIPVGVLCSPMIPMVNDMELERLLQAARDAGARSAAYMLLRLPREVGPLFEEWLAAHYPQRAEHVMSLVRQCRGGEVYDSRFGHRFRGQGPFADLLAQRFAVAMKRLGLDRREGFGLDCSRFAVPGAQMALF”: the “soluble on expression in E. coli” value is given as “not soluble”.
